The text below walks through data of patent US20170002068A1 (YEDA RESEARCH AND DEVELOPMENT, published 2017).

To fix the notation:
B1: human amphiregulin (ligand, UniProt P15514 101-198, looked up)
chain: SVRVEQVVKPPQNKTESENTSDKPKRKKKGGKNGKNRRNRKKKNPCNAEFQNFCIHGECKYIEHLEAVTCKCQQEYFGERCGEKSMKTHSMIDSSLSK
notes: also called AREG; hAREG
B2: AR558, anti-AREG monoclonal antibody (antibody, V domains shown)
VH: EVQLQQSGAELVKPGASVKLSCTASGFNIKDTYMHWVKQRPEQGLEWIGRIDPANRSTKYDPKFQGKATITADTSSNTADLHLSSLTSEDTAVYYCARLYGDSVWYFDVWGAGTTVTVSS
VL: QIVLTQSPAILSASPGEKVTMTCRAGSSVNYIHWYQQKPGSSPKPWIYATSNLASGVPARFSGSGSGTSYSLTISRVEAEDAATYYCQQWSGYPPMLTFGAGTKLELKR
notes: Mouse hybridoma mAb generated in AREG knockout mice; they may cover only the variable regions; also called mAb AR558
B3: AR30, anti-AREG monoclonal antibody (antibody, V domains shown)
VH: EVQLQQSGAELVRSGASVKLSCTASGFNIKDSYMHWVKQRPEQGLEWIGWVDPDNGDTEYAPEFQGRATLTADTFSSTAYLQLTSLTSEDTAVYYCNAPSTYGHYGFAYWGQGTLVTVSA
VL: DIVMTQAAPSVPVTPGESVSISCRSSKSLLHSNGKAYLYWFLQRPGQSPQLLIYRMSNLASGVPDRFSGSGSGTAFTLRISRVEAEDVGVYYCMQHLEYPLTFGAGTKLELKR
notes: Mouse hybridoma mAb raised against TRX-fused EGF-like domain of human AREG; they may cover only the variable regions; also called mAb AR30; AR30 mAb

For assay [1], the target named is T1, Epidermal Growth Factor Receptor (human, UniProt P00533 25-1210).
T1 construct: whole, on cells; also called EGFR; ERBB1
The assay can be described thus: displacement of 125I-EGF (50 ng/mL) by unlabeled ligand on MCAS ovarian cancer cells, on ice. Here is the method: (§1) The cells were later washed and lysed, and the associated radioactivity was determined. […] The cells were later washed and lysed in 1 N NaOH. Cell-associated radioactivity was determined. […] Washed immunocomplexes, along with whole extracts, were immunoblotted with the indicated antibodies.

Assay [2] has as its target T1, Epidermal Growth Factor Receptor. The assay can be described thus: displacement of 125I-EGF (50 ng/mL) from MCAS ovarian cancer cells by unlabeled ligand, 3 h on ice, cell-associated radioactivity. Here is the method: as §1
(In general: Displacement assays read how much labelled ligand stays bound in the presence of the test substance.)

The target is the same in assay [3]. The assay can be described thus: cell-based or functional assay.
In assay [4] the target is T2, human epidermal growth factor (human, UniProt P01133 971-1023).
T2 construct: also called hEGF; EGF
The assay can be described thus: ELISA, wells coated with ligand at 400, 200, 100, 50, 25 and 10 ng/mL, mAb 1 µg/mL 2 h, anti-mouse-HRP, ABTS; absorbance 415 nm on the sheet. Here is the method:
(§2) Thereafter, wells were incubated for two hours with an anti-mouse antibody conjugated to HRP, followed by a 30 minute incubation with ATBS. Signals were determined using an ELISA reader (set at 415 nm). […] Thereafter, wells were incubated for two hours with an anti-mouse antibody conjugated to HRP, followed by a 30-min incubation with ATBS. Signals were determined using an ELISA reader (set at 415 nm). […] Thereafter, wells were incubated for two hours with an anti-mouse antibody conjugated to HRP, followed by a 20-min incubation with ATBS. Signals were determined using an ELISA reader (set at 420 nm).
On the technique in general: In an ELISA, binding on a coated surface is turned into a signal by an enzyme label.

Assay [5] deals with B1. Nature of the assay: ELISA, wells coated with human AREG at 0, 10, 50, 100, 500 ng/mL, antibody 2 h, anti-mouse-HRP, ABTS, absorbance 415 nm. Here is the method:
Thereafter, wells were incubated for two hours with an anti-mouse antibody conjugated to HRP, followed by a 30 minute incubation with ATBS. Signals were determined using an ELISA reader (set at 415 nm).

Assay [6] deals with T3, human heparin-binding EGF-like growth factor (human, UniProt Q99075 63-148).
T3 construct: also called hHB-EGF; HB-EGF
Nature of the assay: ELISA, wells coated with 400 ng/mL ligand, mAb 2 h, anti-mouse-HRP, ABTS, 415 nm (legend; the y axis has no title). Here is the method:
as §2

In assay [7] the target is T4, murine amphiregulin (mouse, UniProt P31955 94-191, limits assumed).
T4 construct: also called mAREG; murine AREG
T4 sequence (looked up): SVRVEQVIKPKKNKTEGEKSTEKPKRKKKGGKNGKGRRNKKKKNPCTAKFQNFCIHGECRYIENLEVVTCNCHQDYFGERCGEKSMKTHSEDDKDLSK
The description is as above. Here is the method:
as §2

Assay [8] concerns the target T2, human epidermal growth factor. Nature of the assay: SPR (BIAcore 3000), ligand in solution over AR30-coated surface. Here is the method:
(§3) SPR was performed on a BIAcore 3000 instrument (BIAcore, Uppsala, Sweden). Proteins were diluted in 100 mM Na-acetate (pH 4.6) to 20 μg/ml and immobilized on a CM5 sensor chip using a standard protocol of amine coupling. The protein solution was flown over the chip for 5 minutes at a rate of 20 μl/min. […] The net signal was obtained by subtracting the blank signal (plain dextran matrix) from the signal recorded from the immobilized surface. The association phase for analyte binding to all ligands was followed for 4 minutes, and dissociation phases were monitored for 3 minutes. Surface regeneration between consecutive binding cycles included a 1 min injection of 2 mM NaOH. The response was monitored as a function of time (sensorgram). Multi-concentration data underwent fitting using the software BIAevaluation 3.2.

The target of the next assay is T5, human betacellulin (human, UniProt P35070 32-111).
T5 construct: also called hBTC; BTC
T5 sequence (looked up): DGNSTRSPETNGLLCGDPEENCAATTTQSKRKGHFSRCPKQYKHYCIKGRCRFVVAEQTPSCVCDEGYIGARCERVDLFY
The assay is described as above. Here is the method:
as §3

For assay [9], the target named is B1. The description is as above. Here is the method: as §3
In assay [10] the target is T3, human heparin-binding EGF-like growth …. The description is as above. Here is the method:
as §3

In assay [11] the target is T4, murine amphiregulin. Described as above. Here is the method: as §3
A further assay addresses T6, human neuregulin 1 (human, UniProt Q02297-6 177-241, limits assumed).
T6 construct: also called hNRG1; NRG1
T6 sequence (looked up): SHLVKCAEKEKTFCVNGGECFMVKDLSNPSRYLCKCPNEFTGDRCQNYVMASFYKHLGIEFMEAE
Described as above. Here is the method: as §3

The target in the next assay is T7, human epigen (human, UniProt Q6UW88 24-104, limits assumed).
T7 construct: also called hEPG; EPG
Described as above. Here is the method: as §3

Assay [12] addresses T8, human transforming growth factor alpha (human, UniProt P01135 40-89).
T8 construct: also called hTGF-alpha; TGF-alpha
The assay is described as above. Here is the method:
as §3

Assay [13] concerns the target T9, murine heparin-binding EGF-like growth factor (mouse, UniProt Q06186 63-148, limits assumed).
T9 construct: also called mHB-EGF
T9 sequence (looked up): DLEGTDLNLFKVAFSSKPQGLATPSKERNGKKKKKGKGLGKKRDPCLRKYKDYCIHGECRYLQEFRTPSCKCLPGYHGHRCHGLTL
The description is as above. Here is the method:
as §3

T3 sequence (Q99075 63-148 limits assumed): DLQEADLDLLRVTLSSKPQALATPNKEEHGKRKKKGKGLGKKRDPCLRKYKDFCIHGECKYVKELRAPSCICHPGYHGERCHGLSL
T2 sequence (P01133 971-1023 limits assumed): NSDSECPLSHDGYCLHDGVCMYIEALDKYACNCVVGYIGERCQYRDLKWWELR
T7 sequence (Q6UW88 24-104 limits assumed): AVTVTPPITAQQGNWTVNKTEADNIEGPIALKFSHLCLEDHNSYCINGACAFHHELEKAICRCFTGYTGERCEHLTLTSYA

As for B1, the “fold lower binding affinity compared to EGF” value in assay [1] was around 100 fold. In addition, in assay [2], the “IC50 (read off the curve)” value was around 0.1 µg/mL. The “endocytosis-mediated downregulation of EGFR (MCAS cells, 125I-EGF binding after stimulation)” value in assay [3] is around 30%.

B2: the binding result in assay [4] is reported as “no binding (tested: 400 ng/mL coated ligand, mAb 1 µg/mL)”; with human amphiregulin [5] it was “binds”; in [6], “no binding (tested: 400 ng/mL coated ligand)”; in the assay with murine amphiregulin [7], “no binding (tested: 400 ng/mL coated ligand)”.

Take B3: the Kd in assay [8] was above 10 µM; in the assay with human betacellulin it was above 10 µM; in the assay with human amphiregulin [9] it was 0.0017 µM; in [10] it was 0.08 µM; with murine amphiregulin [11] it was above 10 µM; with human neuregulin 1 it was above 10 µM. The values for the Kd (with human epigen; in assay [12]; in assay [13]) were above 10 µM, above 10 µM and 6.65 µM, respectively.

Usually Kd stands for the constant that tells how readily two partners part at equilibrium.
